Experimental data published in PMC7102495.
Each block holds one substance with its values, some of them ahead of it.

How the values were obtained:
Assay in all cases: FRET or BRET
[1] = biological target: ^NDD_(BaeN)+mTurquoise2 (Bacillus amyloliquefaciens FZB42 | not stated)
[2] = biological target: ^NDD_(MlnC)+mTurquoise2 (Bacillus amyloliquefaciens FZB42 | not stated)
[3] = biological target: ^NDD_(DifG)+mTurquoise2 (Bacillus amyloliquefaciens FZB42 | not stated)

Kd [1]: 7.4 µM
Substance: Venus+^CDD_(BaeM)

Kd [2]: 2.9 µM
Substance: Venus+^CDD_(MlnB)

Kd [3]: 6.3 µM
Substance: Venus+^CDD_(DifF)
